Data: the nanobody polyreactivity screen of Harvey et al. (2022)

Test: yeast display, Sf9 membrane polyspecificity reagent, FACS + sequencing; frameworks hold sequencing errors
Procedure, shortened: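 Nanobodies from a synthetic yeast display library (Saccharomyces cerevisiae BJ5465), induced 36–48 hours with galactose, were stained 1 hour at 4 °C with 10% biotinylated, detergent-solubilized Sf9 membrane reagent, enriched on streptavidin microbeads, then FACS-sorted. Anti-HA (expression) and streptavidin (reagent binding) fluorescence set low and high (top ~1%) gates. Polyreactivity labels come from the gate of origin. Genes were colony-PCR amplified, MiSeq 2 × 250 sequenced and filtered by CDR length.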

Row | Sequence | polyreactivity (PSR sort gate)
1 | QVQLVESGGGLVQAGGSLRLSCAASGLIFWFYAMGWYRQAPGKERELVAAISGDGDSTYYADSVKGRFTISRDHAKNTVYLQMNSLKPEDTAVYYCAAEWDPVFATDEDDYWGQGTQVTVSS | low polyreactivity
2 | QVQLVESGGGLVQAGGSLRLSCAASGLIFWYNAMGWDRQATGKEREFVAAITSDGGRTYYADSVKGRFTISRDNAKNTVYLQMNSLKTEDTAVYYCTARGYGYLGRKGGYSYGYYYWGQGTQVTVSS | low polyreactivity
3 | QVQLVESGGGLVQAGGSLRLSCAASGLIFWYYAMGWYRQAPGTERELVASISSGGDTTYADSVKGRFTISRDNAKKTVYLQMNSLKPEDTAVYDCAAERYVRVWVAGILHYDYWGQGTQVTGSS | low polyreactivity
4 | QVQLVESGGGLVQAGGSLRLSCAASGLIFYAYAMGWYRQAPGKERELVAAISYSGGSTYYADSVKGRFTISRDNAKNTVYLQMNSLKPEDTAVYYCAASYISVYWRWYEYWGQGTQVTVSS | high polyreactivity
5 | QVQLVESGGGLVQAGGSLRLSCAASGLIFYDNMGGYRQAPGKERELVAAISSSGGSTSYADSVKGRFTISRDNAKNTVSLQMNSLNPEDSAVYYCTVSPGVWRSIPLYYNLLYGYWGQGTQVTVSS | low polyreactivity
6 | QVQLVESGGGLVQAGGSLRLSCAASGLIFYDNMGWYGPAPGKERELVAAISSSGGSTSYADSVKGRFTISRDNAKNTVYLQMNSLKPEDTAVYYCAADSYPAYLGFVCFDYWGQGTQVTVSS | low polyreactivity
7 | QVQLVESGGGLVQAGGSLRLSCAASGLIFYDNMGWYRQAPGKERELVAAISSSGGSTSYADSVKGRFTISRDNAKNTVYLQMNSLKPEDTAVYYCAADVELWVFRGQQYDYWGQGTQVTVSS | low polyreactivity
8 | QVQLVESGGGLVQAGGSLRLSCAASGLIFYDNMVWYRQGPGTETELVAAISSSGGSTSYADSVKGRFTISRDNAKNTVYLQMNILKPEDTAVYYCAADSYPAYLGFVCFDYWGQGTEVTVSS | low polyreactivity
9 | QVQLVESGGGLVQAGGSLRLSCAASGLIFYDYAMGWYRPAPGKERELVAAITSSDSTYYADSVKGRFTISRDNAQNTVYLQMNSLKPEDTAVYYCAAKPYYFYGMDYWGQGTQVTVSS | high polyreactivity
10 | QVQLVESGGGLVQAGGSLRLSCAASGLIFYENAMGWYRQAPGKERELVAAINYDGDSTYYADSVKGRFTISRDNAKNTFYLQLNSLKPEDTAVYYCAADGGWVLFWMDYWGQGTQVTVSS | low polyreactivity
11 | QVQLVESGGGLVQAGGSLRLSCAASGLIFYGNAMGWSRQAPGKERELVAAISRRGGRTYYADSVKGRFTISRDNAKNTVYLQMNSLKPEDTAVYYCDADVIYSGDYWGQGTQVTVSS | high polyreactivity
12 | QVQLVESGGGLVQAGGSLRLSCAASGLIFYGNAMGWYRQAPVKERELVAAISRRGGRTYYADSVKGRFTISRDNAKNTVYLQMNSLKPEDTAVYYCAAGVPKNGQAGYDYWGQGTQVTVSS | high polyreactivity
13 | QVQLVESGGGLVQAGGSLRLSCAASGLIFYGNAMGWYRQAPWKERELVAAITGGGGNTYYADSVKGRFTISRDNAKITFFLQMISLKPEDTAVYYCASASSTAYVRYYYWGQGTQVTVSS | high polyreactivity
14 | QVQLVESGGGLVQAGGSLRLSCAASGLIFYINAMGWYRQAPGKERELVAAISSGGSTNYADSVKGRFTISRDNAKNTVYLQMNSLKPEDTAVYYCARDAYLPRIADGDGRYELVDYWGQGTQVTVSS | low polyreactivity
15 | QVQLVESGGGLVQAGGSLRLSCAASGLIFYIYMGWYRQAPGKERELVAVISSSGNSTYYADSVKGRFTISRDNEKNTVYLQMNSLKPEDTAVYYCNASAYYPPSSSRYDYWGQGTQVTVSS | low polyreactivity
16 | QVQLVESGGGLVQAGGSLRLSCAASGLIFYKYAMGWYRQAPGKERELVASISTGGGSTYYADSVKGRFTISRDNAKNTVYLQMNSLKPEDTAVYYCAARWWRRFRGSHSLYDYWGQGTQVTVSS | high polyreactivity
17 | QVQLVESGGGLVQAGGSLRLSCAASGLIFYRNAMGWYRQAPGKERELVAAISKNGGNTYYADSVKGRFTISRDNAKNTVYLQMYSLKPEDTAVYYCAARELYGPFGYWGQGTQVTVSS | high polyreactivity
18 | QVQLVESGGGLVQAGGSLRLSCAASGLIFYRNAMGWYRQAPGKERELVAGISASGGRTYYADSVNGRFTISRDNAKNTVYLQMNSLKPEDTAVYYCNRPSIYRYPQRLLGNFWGQGTQVTVSS | high polyreactivity
19 | QVQLVESGGGLVQAGGSLRLSCAASGLIFYRYAMGWYRQAPGKERELVAAISRSGSSTYYADSVKGRFTISRDNAKNTFYLQINSLKPEDTAVYYCNAGYGWIWDDRGYWGQGTQVTVSS | high polyreactivity
20 | QVQLVESGGGLVQAGGSLRLSCAASGLIFYRYAMGWYRQAPGKERELVATISSGGSTNYADSVKGRFTISRDNAKNTVYLQMNSLKPEDTAVYYCAASRWLYYYLFEYWGQGTQGTVSS | high polyreactivity
21 | QVQLVESGGGLVQAGGSLRLSCAASGLIFYRYAMGWYRQAPRKERELVARISYRTTSTYYADSVKGRFTISRDNAKNNVYLQMNSLKPEDTAVYYCAASRFAYRVRYLFEYWGHGTQVTVSS | high polyreactivity
22 | QVQLVESGGGLVQAGGSLRLSCAASGLIFYRYTMGWYRQAPGKERELVAAIDDSDTSTYYADSVKGRFTISRDNAKNTVYLQMNSLKPEDTAVYYCAAVPLAPYAVRSRLDFDYWGQGTQVTVSS | low polyreactivity

Row | Sequence | polyreactivity (PSR sort gate)
23 | QVQLVESGGGLVQAGGSLRLSCAASGLIFYRYTMGWYRQAPGKERELVAAITRSGSTYYADSVKGRFTISRDNAKNTVYLQMNSLKPEDTAVYYCAADVTLYYRGRRYYYWGQGTQVTVSS | high polyreactivity
24 | QVQLVESGGGLVQAGGSLRLSCAASGLIFYSYAMGWYRQAPGKERELVAAINGGGGSTYYADSVKGRFTISRDNAKNTVYLQMNSLKPEDTAVYYCAAVRSIVDWGLMYYWGQGTQVTVSS | high polyreactivity
25 | QVQLVESGGGLVQAGGSLRLSCAASGLIFYVYAMGWYRQAPGKERELVAAIRGSGARTYYADSVKGRFTISRDNAKNTVYLQMNSLKPEDTAVYYCNARQRYRPSYDYWGQGTQVTVSS | high polyreactivity
26 | QVQLVESGGGLVQAGGSLRLSCAASGLIFYWYTMGWYRQAPGKEREFVAAITWGGGGTYYADSVKGRFTISRDKAKNTVYLQMNSLKPEDTAVYYCAAEEQVVKAHGDYWGQGTQVTVSS | low polyreactivity
27 | QVQLVESGGGLVQAGGSLRLSCAASGLIFYYYAIGWYRQAPGKERELVAAITTGGGTYYADSVKGRFSISRVNAKNTVYLQMNSLKPEDTAVYYCAVYYRSYWGYEYWGQGTQVTVSS | high polyreactivity
28 | QVQLVESGGGLVQAGGSLRLSCAASGLIFYYYAMGWYRPAPGKERELVAAISRRGGSTYYADSVKGRFTISRDNAKNTVYLQMNSLKPEDTAVYYCNKYRSYWSGPSYWREYDYWGQGTQVTVSS | high polyreactivity
29 | QVQLVESGGGLVQAGGSLRLSCAASGLIFYYYAMGWYRQAPGKERELVAAITWTAGSTSYADSVKGRFTISRDNAKNTVYLQMNSLKPEDTAVYYCAADYRHDTFSNEYDYWGQGTQVTVSS | low polyreactivity
30 | QVQLVESGGGLVQAGGSLRLSCAASGLIIRYYDMGWYRQAPGKEREFVAAITWNGGSTYADSVKGRFTISRDNAKNTVYLQMNSLKPEDTAVYYCAADLSYWDDFDYWGHGTQVTVSS | low polyreactivity
31 | QVQLVESGGGLVQAGGSLRLSCAASGLIIYRYAMGWYRQAPGKERELVAAISSTGGRTYYADSVKGRFTISRDNAKNTVYLQMNSLKPEDTAVYYCNADYGWKYVQYYYWGQGTQVTVSS | high polyreactivity
32 | QVQLVESGGGLVQAGGSLRLSCAASGLIIYRYGMGWYRQAPGKERELVAAISYSGSSSYYADSVKGRFTISRDNAKNTVYLQMNSLKPEDTAVYYCAARHGPRSEAMYYWGQGTQVTVSS | high polyreactivity
33 | QVQLVESGGGLVQAGGSLRLSCAASGLIIYYYAMGWYRQAPGKERELVAAISINGGSTYYADSVKGRFTISRDNAKNTVYLQMNSLIPEDTAVYYCAAFRRRMEYWGQGTQVTVSS | high polyreactivity
34 | QVQLVESGGGLVQAGGSLRLSCAASGLILDGNVMGWYRQAPGKERELVAAINTSGGSTYYADSVKGRFTISRDNAKNTVYLQMNSLKPEDTAVYYCAARYPSDYDYWGQGTQVTVSS | low polyreactivity
35 | QVQLVESGGGLVQAGGSLRLSCAASGLILRKYAMGWYRQAPGKEREFVAAITQTGSRTYYADSVKGRFTISRDNAKNTVYLQMNSLKPEDTAVYYCNAVNYRSSRDSGYWGQGTQVTVSS | high polyreactivity
36 | QVQLVESGGGLVQAGGSLRLSCAASGLILRRYAMGWYRQAPGKDRELVAAISWSGGRTYYADSVKGRFTISRDNAKNTVYLQMISLKPEDTAVYYCAAGYIYWYYSYDYWGQGTQGTVSS | high polyreactivity
37 | QVQLVESGGGLVQAGGSLRLSCAASGLILSAYAMGWYRQAPGKERELVAAISKRGGSTYYADSVKGRFTISRDNAKNTVYSQMNSLKPEDTAVYYCAADYTKHYWGQGTQVTVSS | high polyreactivity
38 | QVQLVESGGGLVQAGGSLRLSCAASGLILSTYAMGWYRQAPGKERELVAAITWRSGSTYYADSVKGRFTISRDNAKNTVYLQMNSLKPEDTAVYYCNVAPTFPYNGYEYWGQGTQVTVSS | high polyreactivity
39 | QVQLVESGGGLVQAGGSLRLSCAASGLILVYYAMGWYRQAPGKERELVAAITPGGSTKYADSVKGRFTISRDNAKNTVYFQMNSLKPEDTAVYYCAVDGDWHEPGNYIYEYDYWGQGTQVTVSS | low polyreactivity
40 | QVQLVESGGGLVQAGGSLRLSCAASGLILYHYAMGWYREAPGKERELVAAISSGGITHYADSVKGRFTISRDNAKNTVYLQMNILKPEDNAVYYCNAVSYYWHDFDYWGQGTQVTVSS | high polyreactivity
41 | QVQLVESGGGLVQAGGSLRLSCAASGLILYSYAMGWYRQAPGKERELVADISSGGITNYADSVKGRFTISRDNAKNTVYLQMNSLKPEDTAFYYCNADSYGGNLYIWEYYYWGQGTQVTVSS | low polyreactivity
42 | QVQLVESGGGLVQAGGSLRLSCAASGLILYSYAMGWYRQAPGKERELVADISSGGITNYADSVKGRFTISRDNAKNTVYLQMNSLKPEDTAVYYCAADTRPVNYILYDYWGQGTQVTVSS | low polyreactivity
43 | QVQLVESGGGLVQAGGSLRLSCAASGLILYSYTMGRYRHAPGKERELVAVISRSGTSTYYADSVKGRFTISRDNAKNTVYLQMNSLKREDTSFYFCAALSRSGPYAYEYWGQGTQVSVSS | high polyreactivity
